The results in this text go back to patent US20030124114A1.

The target in this assay is hepatitis A virus (HAV) particles (hepatitis A virus). Briefly: cell-based or functional assay.

The substance D1muc-Fc fusion protein (IgVmuc-hIg) gave an HAV infectivity (neutralization) of 2 logs.
